# Reference: publication PMC2196380
# Molecular target: HLA-DM (DMα/DMβ heterodimer) (human (endogenous in B-LCL)) (UniProt P28067)
# Test: co-IP
# Chain of UniProt P28067 (P28067 27-261, chain 1 of 2): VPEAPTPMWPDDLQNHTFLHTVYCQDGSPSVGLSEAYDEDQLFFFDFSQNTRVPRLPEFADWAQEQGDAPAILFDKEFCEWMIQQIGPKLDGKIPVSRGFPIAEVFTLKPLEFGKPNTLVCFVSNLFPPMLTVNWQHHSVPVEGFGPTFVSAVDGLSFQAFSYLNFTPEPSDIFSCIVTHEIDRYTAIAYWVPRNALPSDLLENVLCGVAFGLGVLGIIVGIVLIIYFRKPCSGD
# Chain of UniProt P28067 (P28068 19-263, chain 2 of 2, further chain): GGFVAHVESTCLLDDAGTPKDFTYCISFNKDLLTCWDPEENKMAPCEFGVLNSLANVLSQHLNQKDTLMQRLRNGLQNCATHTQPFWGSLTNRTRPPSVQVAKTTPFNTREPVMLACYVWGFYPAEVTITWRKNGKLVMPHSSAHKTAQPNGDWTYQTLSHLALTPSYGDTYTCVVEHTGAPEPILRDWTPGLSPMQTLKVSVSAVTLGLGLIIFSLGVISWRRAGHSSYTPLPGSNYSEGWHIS
substance,measurement,value
wild-type HLA-DR3 αβCLIP complexes from T2.DR3 cells (from UniProt P01903 26-254) (peptide-MHC),percent coprecipitated with DM,14%
